Source: doi:10.1101/2024.08.28.610080

Tests used:
Assay in all cases: EMSA
POLγA WT = POLγA WT (human, UniProt P54098 26-1239)
[1] = target: POLγA WT;POLγB (processivity subunit, B2) (human;human, UniProt P54098;Q9UHN1 26-1239;26-485, |)
[2] = target: POLγA Y951N;POLγB (processivity subunit, B2) (human;human, UniProt P54098;Q9UHN1 26-1239;26-485, Y951N|)
POLγA Y951N = POLγA Y951N (human, UniProt P54098 26-1239, Y951N)

Measured: binding result

Sequence of POLγA WT;POLγB (processivity subunit, B2) (P54098 26-1239, chain 1 of 2): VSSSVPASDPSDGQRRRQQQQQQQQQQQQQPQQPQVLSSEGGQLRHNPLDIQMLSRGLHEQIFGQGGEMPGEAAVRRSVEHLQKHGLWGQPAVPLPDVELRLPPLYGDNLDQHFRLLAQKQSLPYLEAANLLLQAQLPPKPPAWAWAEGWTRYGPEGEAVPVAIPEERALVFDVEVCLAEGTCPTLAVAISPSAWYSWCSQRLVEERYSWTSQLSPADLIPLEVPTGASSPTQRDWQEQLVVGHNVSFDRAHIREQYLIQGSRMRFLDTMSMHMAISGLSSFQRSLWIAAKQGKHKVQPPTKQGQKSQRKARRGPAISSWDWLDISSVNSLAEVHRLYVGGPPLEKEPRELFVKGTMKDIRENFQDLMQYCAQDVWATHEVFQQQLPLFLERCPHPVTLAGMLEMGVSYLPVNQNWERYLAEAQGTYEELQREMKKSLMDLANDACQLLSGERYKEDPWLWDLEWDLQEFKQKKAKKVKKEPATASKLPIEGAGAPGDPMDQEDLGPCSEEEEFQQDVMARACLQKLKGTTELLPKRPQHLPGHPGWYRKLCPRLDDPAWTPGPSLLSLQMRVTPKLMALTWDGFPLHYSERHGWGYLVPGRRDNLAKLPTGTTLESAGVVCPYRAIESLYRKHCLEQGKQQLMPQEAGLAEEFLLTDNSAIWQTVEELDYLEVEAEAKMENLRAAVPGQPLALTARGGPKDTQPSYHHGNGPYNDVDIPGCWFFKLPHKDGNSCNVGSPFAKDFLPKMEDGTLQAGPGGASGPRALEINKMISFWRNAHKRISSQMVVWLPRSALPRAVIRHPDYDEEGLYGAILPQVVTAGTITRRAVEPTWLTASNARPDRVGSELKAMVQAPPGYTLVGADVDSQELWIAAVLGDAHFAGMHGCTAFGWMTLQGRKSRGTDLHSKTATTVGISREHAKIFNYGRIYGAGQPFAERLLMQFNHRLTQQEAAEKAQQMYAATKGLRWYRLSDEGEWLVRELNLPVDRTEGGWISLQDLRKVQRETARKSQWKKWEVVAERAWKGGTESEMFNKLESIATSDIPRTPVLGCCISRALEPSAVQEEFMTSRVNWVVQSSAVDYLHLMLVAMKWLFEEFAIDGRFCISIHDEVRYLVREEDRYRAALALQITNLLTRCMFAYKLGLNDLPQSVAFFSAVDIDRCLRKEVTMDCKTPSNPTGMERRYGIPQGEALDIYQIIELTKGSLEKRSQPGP
Sequence of POLγA WT;POLγB (processivity subunit, B2) (Q9UHN1 26-485, chain 2 of 2): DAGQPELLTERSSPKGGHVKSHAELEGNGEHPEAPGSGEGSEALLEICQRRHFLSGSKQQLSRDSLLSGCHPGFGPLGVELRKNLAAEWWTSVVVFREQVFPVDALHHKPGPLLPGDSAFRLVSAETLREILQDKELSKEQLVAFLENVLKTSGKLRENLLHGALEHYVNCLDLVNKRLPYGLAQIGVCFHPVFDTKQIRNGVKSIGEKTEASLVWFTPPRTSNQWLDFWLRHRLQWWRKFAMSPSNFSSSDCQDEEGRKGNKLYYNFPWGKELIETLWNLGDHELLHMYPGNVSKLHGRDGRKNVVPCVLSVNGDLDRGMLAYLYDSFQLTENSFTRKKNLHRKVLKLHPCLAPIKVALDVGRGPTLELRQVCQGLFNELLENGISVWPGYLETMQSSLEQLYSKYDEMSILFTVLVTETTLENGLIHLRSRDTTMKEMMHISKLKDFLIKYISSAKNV
Sequence of POLγA WT (P54098 26-1239): as the sequence (P54098 26-1239, chain 1 of 2) above
Sequence of POLγA Y951N (P54098 26-1239 Y951N): as the sequence (P54098 26-1239, chain 1 of 2) above, with Y926N counted along it
Sequence of POLγA Y951N;POLγB (processivity subunit, B2) (P54098 26-1239 Y951N, chain 1 of 2): as the sequence (P54098 26-1239, chain 1 of 2) above, with Y926N counted along it
Sequence of POLγA Y951N;POLγB (processivity subunit, B2) (Q9UHN1 26-485, chain 2 of 2): as the sequence (Q9UHN1 26-485, chain 2 of 2) above

B1: 25/40 nt TET-ddC primer/template (EMSA) (dsDNA)
DNA 1: GCAGTGAATTTCTGCAGGTCGACTC
DNA 2: GCGGGTTGACCTTTGGAGTCGACCTGCAGAAATTCACTGC
modifications: 3'-ddC on both strands
binds: all assays above
